What is called stoichiometry N is a count of units in the complex or per binding partner.

One data set deals with AR-AR27Linker (mouse) (UniProt P19091). Kind of data set: fluorescence polarization. The settings on record: 150 mM NaCl, 40 mM Tris pH 8.0, 1 mM TCEP, 20 uM DHT, 10% glycerol, 0.01% NP40, on ice; FP 100 nM DNA, 0-4 uM protein; EMSA 50 nM DNA, 250 nM protein. On the technique in general: Polarisation of emitted light reports the rotation of a fluorescent probe.
For another data set, the target named is AR-AR18Linker (mouse) (UniProt P19091). Put plainly: fluorescence polarization. The settings on record: 150 mM NaCl, 40 mM Tris pH 8.0, 1 mM TCEP, 20 uM DHT, 10% glycerol, 0.01% NP40, on ice; FP 100 nM DNA, 0-4 uM protein; EMSA 50 nM DNA, 250 nM protein.
AR-AR18Linker (mouse), sequence (P19091 whole entry, the tested form may be a part): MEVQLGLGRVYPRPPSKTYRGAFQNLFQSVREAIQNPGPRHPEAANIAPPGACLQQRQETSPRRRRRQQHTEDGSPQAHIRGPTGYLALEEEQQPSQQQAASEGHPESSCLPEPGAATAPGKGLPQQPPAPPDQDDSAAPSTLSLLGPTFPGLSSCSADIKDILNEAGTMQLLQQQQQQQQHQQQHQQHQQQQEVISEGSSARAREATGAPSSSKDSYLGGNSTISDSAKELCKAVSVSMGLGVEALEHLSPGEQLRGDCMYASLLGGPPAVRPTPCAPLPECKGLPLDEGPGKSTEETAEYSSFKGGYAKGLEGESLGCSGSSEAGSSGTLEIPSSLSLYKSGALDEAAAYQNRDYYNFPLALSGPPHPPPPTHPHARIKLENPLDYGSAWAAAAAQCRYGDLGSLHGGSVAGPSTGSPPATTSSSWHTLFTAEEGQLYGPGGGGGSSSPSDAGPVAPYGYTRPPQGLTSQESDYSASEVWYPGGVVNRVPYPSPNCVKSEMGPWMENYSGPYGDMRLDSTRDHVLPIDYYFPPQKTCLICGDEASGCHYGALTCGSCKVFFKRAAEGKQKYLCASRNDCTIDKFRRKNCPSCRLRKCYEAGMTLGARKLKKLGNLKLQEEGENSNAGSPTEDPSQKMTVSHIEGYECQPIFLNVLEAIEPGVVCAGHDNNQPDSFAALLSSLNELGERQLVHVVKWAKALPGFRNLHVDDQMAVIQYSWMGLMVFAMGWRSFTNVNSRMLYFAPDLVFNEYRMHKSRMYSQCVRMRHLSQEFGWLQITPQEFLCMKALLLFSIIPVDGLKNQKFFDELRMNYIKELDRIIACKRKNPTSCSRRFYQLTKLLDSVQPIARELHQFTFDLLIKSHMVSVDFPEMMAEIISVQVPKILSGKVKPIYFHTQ
Data set [1] has as its target Recombinant mouse AR lacking the N-terminus (mouse). Put plainly: cryo-EM structure; Grafix cross-linked complex of ΔNTD AR, DHT, ARE35 DNA and ERG (fraction 11); three states (Entrenched, Splayed, Divorced) at 11.4, 9.1 and 9.4 Å; LBD and DBD X-ray coordinates docked.
The next data set concerns the target AR deltaNTD WT (mouse, UniProt P19091 530-899). Put plainly: fluorescence polarization; DHT; 150 mM NaCl, 40 mM Tris pH 8.0, 1 mM TCEP, 20 uM DHT, 10% glycerol, 0.01% NP40, on ice; FP 100 nM DNA, 0-4 uM protein; EMSA 50 nM DNA, 250 nM protein. The settings on record: protein: recombinant; tags: Smt3 fusion, removed by Ulp1; chain copies: 2; label: 5' fluorescein (FP); unlabeled (EMSA); blunt.

Data set [2] deals with AR deltaNTD WT;ERG full-length (mouse;human, UniProt P19091;P11308-1 530-899;1-462, |). Put plainly: cryo-EM (9.1-11.4 A); DHT; GraFix cross-linked; AR dimer; EMD-25132, EMD-25133, EMD-25134; 150 mM NaCl, 40 mM Tris pH 8.0, 1 mM TCEP, 20 uM DHT, 10% glycerol, 0.01% NP40, on ice; FP 100 nM DNA, 0-4 uM protein; EMSA 50 nM DNA, 250 nM protein. The settings on record: protein: recombinant;recombinant, tags: Smt3 fusion, removed by Ulp1;Smt3 fusion, chain copies: 2;1, label: unlabeled, blunt. On the technique in general: In EMSA bound probe runs differently from free probe, usually more slowly.
AR deltaNTD WT;ERG full-length, sequence (P19091 530-899, stated change not applied, chain 1 of 2): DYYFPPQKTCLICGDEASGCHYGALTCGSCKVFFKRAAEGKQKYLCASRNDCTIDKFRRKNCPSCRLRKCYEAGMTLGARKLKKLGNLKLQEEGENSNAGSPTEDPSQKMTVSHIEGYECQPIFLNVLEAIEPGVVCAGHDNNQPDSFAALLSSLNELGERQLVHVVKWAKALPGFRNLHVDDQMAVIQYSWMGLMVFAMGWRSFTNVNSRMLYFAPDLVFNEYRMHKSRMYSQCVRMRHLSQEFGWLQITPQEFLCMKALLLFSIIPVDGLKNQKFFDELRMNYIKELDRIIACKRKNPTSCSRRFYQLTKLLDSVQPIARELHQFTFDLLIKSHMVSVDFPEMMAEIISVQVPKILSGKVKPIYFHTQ
AR deltaNTD WT;ERG full-length, sequence (P11308 other isoform, or with tags, fused parts or gaps | | mutant, chain 2 of 2): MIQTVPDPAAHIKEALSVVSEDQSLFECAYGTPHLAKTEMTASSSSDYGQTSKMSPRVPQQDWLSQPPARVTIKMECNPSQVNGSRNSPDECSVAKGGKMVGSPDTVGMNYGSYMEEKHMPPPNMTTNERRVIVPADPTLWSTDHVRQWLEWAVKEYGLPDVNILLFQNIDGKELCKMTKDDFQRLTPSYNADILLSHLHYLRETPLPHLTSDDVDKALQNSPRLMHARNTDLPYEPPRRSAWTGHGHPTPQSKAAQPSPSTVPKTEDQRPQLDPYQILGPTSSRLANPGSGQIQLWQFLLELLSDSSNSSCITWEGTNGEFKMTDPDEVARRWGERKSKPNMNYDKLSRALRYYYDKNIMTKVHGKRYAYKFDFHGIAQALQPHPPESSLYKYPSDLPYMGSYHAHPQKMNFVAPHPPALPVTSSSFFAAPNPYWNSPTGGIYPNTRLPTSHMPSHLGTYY

AR-AR27Linker (mouse), sequence (P19091 whole entry): as the sequence (P19091 whole entry, the tested form may be a part) above
AR deltaNTD WT, sequence (P19091 530-899, stated change not applied): as the sequence (P19091 530-899, stated change not applied, chain 1 of 2) above

In the case of “TACCTAGCGTGGCCAGAACATCATGTTCTCCGGTGCGATCCAG (double strand) [ARE/Scr (ARE43)]”, the binding signal (fold weaker than WT AR) with AR-AR27Linker (mouse) came out at 3. Besides, the binding signal (fold tighter than WT AR) in the data set with AR-AR18Linker (mouse) was found to be 5.

For “Recombinant mouse AR lacking the N-terminus (domain or fragment)”, in data set [1], the stoichiometry N amounted to 2.

B1: ARE/Scr (ARE43) (dsDNA)
DNA 1: TACCTAGCGTGGCCAGAACATCATGTTCTCCGGTGCGATCCAG
DNA 2: CTGGATCGCACCGGAGAACATGATGTTCTGGCCACGCTAGGTA
Consider B1, for which the binding result with AR deltaNTD WT was “binds”.

B2: ARE35 (dsDNA)
DNA 1: TAGCGTGGCCAGAACATCATGTTCTCCGGTGCGAT
DNA 2: ATCGCACCGGAGAACATGATGTTCTGGCCACGCTA
For the molecule B2, the binding result in data set [2] is reported as “binds”.

Source of the values: publication PMC9177810, “Allosteric interactions prime androgen receptor dimerization and activation”.
